# From PMC3477848 (Biochemistry, 2012)
# Where two headings read alike, the source gives them in different places.
# T1: Dpo1 exo- (SsoDpo1, B-family DNA polymerase) (Sulfolobus solfataricus, UniProt P26811 1-882, D231A;D318A)
# T1 sequence: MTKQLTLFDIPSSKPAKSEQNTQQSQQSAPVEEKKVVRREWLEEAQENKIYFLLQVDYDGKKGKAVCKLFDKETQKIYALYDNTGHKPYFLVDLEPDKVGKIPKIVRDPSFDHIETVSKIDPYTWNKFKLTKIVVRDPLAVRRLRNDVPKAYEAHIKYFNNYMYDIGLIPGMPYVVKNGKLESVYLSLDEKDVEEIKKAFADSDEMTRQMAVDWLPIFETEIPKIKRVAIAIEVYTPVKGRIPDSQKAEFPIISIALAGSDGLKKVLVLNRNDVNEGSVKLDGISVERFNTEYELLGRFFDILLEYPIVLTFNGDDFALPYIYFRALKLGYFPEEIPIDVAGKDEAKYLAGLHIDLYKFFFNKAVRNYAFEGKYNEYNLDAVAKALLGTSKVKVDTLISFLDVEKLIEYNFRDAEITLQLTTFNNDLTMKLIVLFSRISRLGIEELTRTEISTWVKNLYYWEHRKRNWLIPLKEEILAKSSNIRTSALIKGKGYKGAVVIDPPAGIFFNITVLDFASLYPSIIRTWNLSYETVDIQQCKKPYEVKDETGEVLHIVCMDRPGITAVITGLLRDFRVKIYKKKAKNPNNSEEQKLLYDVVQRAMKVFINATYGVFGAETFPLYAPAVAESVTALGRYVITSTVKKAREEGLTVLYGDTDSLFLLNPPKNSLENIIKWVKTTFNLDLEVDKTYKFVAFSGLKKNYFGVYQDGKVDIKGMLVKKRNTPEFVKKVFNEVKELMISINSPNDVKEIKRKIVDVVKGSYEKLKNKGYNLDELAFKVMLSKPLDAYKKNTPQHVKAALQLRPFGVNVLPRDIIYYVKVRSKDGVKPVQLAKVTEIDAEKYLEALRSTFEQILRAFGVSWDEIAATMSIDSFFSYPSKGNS
# T2: Dpo4 (SsoDpo4, Y-family DNA polymerase) (Sulfolobus solfataricus, UniProt Q97W02 1-352)
# T2 sequence: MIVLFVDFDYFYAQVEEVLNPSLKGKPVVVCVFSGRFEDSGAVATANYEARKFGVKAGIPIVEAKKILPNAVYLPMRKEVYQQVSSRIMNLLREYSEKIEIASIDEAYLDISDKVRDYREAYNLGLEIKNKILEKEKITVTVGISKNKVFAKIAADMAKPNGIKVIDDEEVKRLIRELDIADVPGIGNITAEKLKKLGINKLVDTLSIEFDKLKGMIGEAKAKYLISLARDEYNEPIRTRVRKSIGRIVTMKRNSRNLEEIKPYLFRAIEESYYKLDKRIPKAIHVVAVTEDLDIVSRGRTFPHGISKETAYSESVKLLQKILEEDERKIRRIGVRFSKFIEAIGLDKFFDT
# B1: 37-nt hairpin primer-template, 5'-Cy3 (structured_DNA)
# DNA: TTTTTTTTTTCCCGGGCCGGCGTTTCGCCGGCCCGGG
# Assays:
# Experiment in all cases: fluorescence anisotropy
# [1] = target: T1, Dpo1 exo- (SsoDpo1, B-family DNA …)
# [2] = target: T1, Dpo1 exo- (SsoDpo1, B-family DNA …); remark: listed apart in the source
# [3] = target: T2, Dpo4 (SsoDpo4, Y-family DNA polymerase)
# [4] = target: T2, Dpo4 (SsoDpo4, Y-family DNA polymerase); remark: listed apart in the source
# [5] = target: T1, Dpo1 exo- (SsoDpo1, B-family DNA …); remark: listed apart in the source
# [6] = target: T2, Dpo4 (SsoDpo4, Y-family DNA polymerase); remark: listed apart in the source
# [7] = target: T1, Dpo1 exo- (SsoDpo1, B-family DNA …); remark: listed apart in the source
# [8] = target: T2, Dpo4 (SsoDpo4, Y-family DNA polymerase); remark: listed apart in the source
binder,measurement,setting,value
B1,Kd,[1],105 ± 3 nM
same,Kd,[2],322 ± 23 nM
same,Kd,[3],435 ± 116 nM
same,Kd,[4],140 ± 66 nM
same,Kd,[5],198 ± 26 nM
same,Kd,[6],155 ± 65 nM
same,Kd,[7],144 ± 15 nM
same,Kd,[8],125 ± 51 nM
